Target: T1, Ron (Sema IPT1)-IgG fusion protein (human, UniProt Q04912 25-683, limits assumed)
T1 construct: domain: Sema IPT1; Captured on the chip or plate through an anti-human IgG (Fc specific) antibody; also called Ron-Fc; human Ron; not shown: IgG (Fc) portion, captured by rabbit anti-human IgG Fc antibody
T1 sequence (looked up): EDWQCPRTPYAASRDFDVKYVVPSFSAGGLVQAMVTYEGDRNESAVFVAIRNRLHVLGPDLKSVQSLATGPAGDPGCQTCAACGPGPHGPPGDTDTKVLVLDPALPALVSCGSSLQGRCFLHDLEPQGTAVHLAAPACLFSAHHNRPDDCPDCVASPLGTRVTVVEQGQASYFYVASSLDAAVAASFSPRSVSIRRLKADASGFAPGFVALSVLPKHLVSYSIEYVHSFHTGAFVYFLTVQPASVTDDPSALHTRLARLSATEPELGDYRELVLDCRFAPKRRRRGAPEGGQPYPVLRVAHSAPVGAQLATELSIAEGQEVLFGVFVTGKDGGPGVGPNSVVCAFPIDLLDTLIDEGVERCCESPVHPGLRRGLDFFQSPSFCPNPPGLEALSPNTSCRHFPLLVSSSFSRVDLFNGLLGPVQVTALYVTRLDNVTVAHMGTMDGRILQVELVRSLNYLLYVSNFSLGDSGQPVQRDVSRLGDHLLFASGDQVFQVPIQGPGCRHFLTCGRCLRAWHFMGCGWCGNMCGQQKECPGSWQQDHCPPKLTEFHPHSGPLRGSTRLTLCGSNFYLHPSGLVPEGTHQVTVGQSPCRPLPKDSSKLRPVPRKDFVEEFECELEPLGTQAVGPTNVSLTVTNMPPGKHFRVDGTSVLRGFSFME
Assay: ELISA, Ron (Sema IPT1)-IgG captured on an anti-human IgG Fc coated plate, His tagged MSP detected with anti-His-HRP, four parameter fit; ELISA, not SPR; printed only as 'MSP'
Description: To determine binding affinity of hepsin-activated MSP to human Ron, surface plasmon resonance measurements on a BIAcore™-3000 instrument (GE Health Care, NJ) were performed. Rabbit anti-human IgG were chemically immobilized (amine coupling) on CM5 biosensor chips and the Ron (Sema IPT1)-IgG fusion protein was captured to give approximately 250 response units (RU). For kinetics measurements, different concentration of either hepsin-activated MSP or a commercially available MSP (R&D systems) were injected in HBS-P buffer at 25° C. with a flow rate of 30 μl/min. Association rates (kₒₙ) and dissociation rates (koff) were obtained by using a simple one-to-one Langmuir binding model (BIA-Evaluation) and the equilibrium dissociation constants (KD) were calculated (koff/kₒₙ). […] Bound MSP was detected using anti-His-HRP (Qiagen, Valencia, Calif.) followed by addition of TMB/H₂O₂ substrate (KPL, Gaithersburg, Md.). The reaction was stopped with 1M H₃PO₄ and the A₄₅₀ was measured on a Molecular Devices (Sunnyvale, Calif.) SpectraMax Plus³⁸⁴ microplate reader. The effective concentration to give half-maximal binding (EC₅₀) was determined by a four parameter fit using Kaleidagraph (Synergy Software, Reading, Pa.). […]

B1: hepsin-activated MSP (recombinant human macrophage-stimulating protein, C672A, cleaved by hepsin at Arg483-Val484) (ligand)
chain 1: QRSPLNDFQVLRGTELQHLLHAVVPGPWQEDVADAEECAGRCGPLMDCRAFHYNVSSHGCQLLPWTQHSPHTRLRRSGRCDLFQKKDYVRTCIMNNGVGYRGTMATTVGGLPCQAWSHKFPNDHKYTPTLRNGLEENFCRNPDGDPGGPWCYTTDPAVRFQSCGIKSCREAACVWCNGEEYRGAVDRTESGRECQRWDLQHPHQHPFEPGKFLDQGLDDNYCRNPDGSERPWCYTTDPQIEREFCDLPRCGSEAQPRQEATTVSCFRGKGEGYRGTANTTTAGVPCQRWDAQIPHQHRFTPEKYACKDLRENFCRNPDGSEAPWCFTLRPGMRAAFCYQIRRCTDDVRPQDCYHGAGEQYRGTVSKTRKGVQCQRWSAETPHKPQFTFTSEPHAQLEENFCRNPDGDSHGPWCYTMDPRTPFDYCALRRCADDQPPSILDPPDQVQFEKCGKRVDRLDQRRSKLR
chain 2: VVGGHPGNSPWTVSLRNRQGQHFCGGSLVKEQWILTARQCFSSCHMPLTGYEVWLGTLFQNPQHGEPSLQRVPVAKMVCGPSGSQLVLLKLERSVTLNQRVALICLPPEWYVVPPGTKCEIAGWGETKGTGNDTVLNVALLNVISNQECNIKHRGRVRESEMCTEGLLAPVGACEGDYGGPLACFTHNAWVLEGIIIPNRVCARSRWPAVFTRVSVFVDWIHKVMRLG
notes: Made by treating recombinant pro-MSP (C672A, from CHO cells) with the recombinant hepsin extracellular domain; It is a disulfide-linked α/β heterodimer; also called hepsin-treated pro-MSP
EC50: 0.519 nM

From patent publication US20120282271A1 (Genentech, published 2012)
